Data as given in article PMC8495130, “Synthesis of L-asparagine Catalyzed by a Novel Asparagine Synthase Coupled With an ATP Regeneration System” (Frontiers in Bioengineering and Biotechnology, 2021).

Columns and labels:
[1] = substrate: Nc1ncnc2c1ncn2[C@@H]1O[C@H](COP(=O)(O)OP(=O)(O)OP(=O)(O)O)[C@@H](O)[C@H]1O; test: HPLC of L-Asn after OPA derivatization; double reciprocal plot; type: biochemical, Ligilactobacillus salivarius; settings: standard assay: L-Asp, NH4Cl, Mg2+, Tris-HCl pH 8.0, 37°C, purification state of the kinetic sample not stated
From the text: HPLC of L-Asn after OPA derivatization; double reciprocal plot on LsaAS-A

purified protein [2] = substrate: N; test: purified protein; settings: standard assay: L-Asp, ATP, Mg2+, Tris-HCl pH 8.0, 37°C, purification state of the kinetic sample not stated
purified protein [3] = substrate: N[C@@H](CC(=O)O)C(=O)O; test: purified protein; settings: standard assay: NH4Cl, ATP, Mg2+, Tris-HCl pH 8.0, 37°C, purification state of the kinetic sample not stated

B1: LsaAS-A (Ligilactobacillus salivarius UCC118) (protein)
chain: MDLIIPKDYDPKLSIRETQEAIRYIRETFQDEFGKEMGLNRVSAPMYVEKSSGINDNLNGYEKPVSFTMKDMPGETIEVVHSLAKWKRMALKKYGFGLHEGLYTNMNAIRKDEDLDNFHSSYVDQWDWEKVISKDERNEKTLKETVELIFKVVKHMEHEVWYKFPNAVYHLPDKIHFITSQELEDKYPELEDAKDRENAICKELGCVFVMQIGDVLKSGKRHDGRAPDYDDWKLNGDILFWYEPLQCALELSSMGIRVDEDSMVEQLKKTGDEDRLKLQYHKMILNKELPYTIGGGIGQSRLCMLLLGKAHVGEVQASIWPDEMLKKCEENGIHIL
notes: full-length asnA product (~40 kDa) from plasmid pMA5, expressed in Bacillus subtilis WB600; Ni-NTA purification described in methods
With B1 as the protein, how does the Km [1] read?
Its Km is 2.24 mmol/L.

And the Km (purified protein [2])?
The Km was 6.5 mmol/L.

And the Km (purified protein [3])?
Its Km is 0.78 mmol/L.
